The nanobody polyreactivity screen of Harvey et al. (2022)

Assay: yeast display, Sf9 membrane polyspecificity reagent, FACS + sequencing; frameworks hold sequencing errors
Outline: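 Galactose induction of a Saccharomyces cerevisiae BJ5465 synthetic nanobody display library ran 36–48 hours. The cells were then stained for 1 hour at 4 °C with 10% biotinylated, detergent-solubilized Sf9 membrane reagent, pulled down on streptavidin microbeads and FACS-sorted into low and high (top ~1%) gates on expression and reagent-binding fluorescence. Labels for polyreactivity follow the gate of origin.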

Sequence	polyreactivity (PSR sort gate)
QVQLVESGGGLVQAGGSLRLSCAASGSIFRWNAMGWYRQAPGKERELVAAIDSGGSTYADSVKGRFTISRDNAKNTVYLQMNSLKPEDTAVYYCAAAIPDEWPYDYWGQGTQVTVSS	low polyreactivity
QVQLVESGGGLVQAGGSLRLSCAASGSIFRWYAMGWYRQAPGKERELVAAISRRGGRTYYADSVKGRFTISRDNAKNTVYLQMNSLKPEDSAVYYCNADFGYRLPGNYWGQGTQVTVSS	low polyreactivity
QVQLVESGGGLVQAGGSLRLSCAASGSIFRWYAMGWYRQAPGKERELVAAISTSGGNTYYADSVKGRFTISRDNAKNTVYLQMNSLKPEDTAVYYCNALWYRSLSYRYDYWGQGTQVTVSS	high polyreactivity
QVQLVESGGGLVQAGGSLRLSCAASGSIFRWYAMGWYRQAPGKERELVAAISYSGGSTYYADSVKGRFTISRDNAKNTVYLQMNSLKPEDTAVYYCARLGWKPITAARDYWGQVTQVTVSS	high polyreactivity
QVQLVESGGGLVQAGGSLRLSCAASGSIFRWYAMGWYRQAPGKERELVAAITSGGSTYYADSVKGRFTISRDNAKNTVYLQMNSLKPEDTAVYYCNAAKLASHTYDYWGLGTQVTVSS	low polyreactivity
QVQLVESGGGLVQAGGSLRLSCAASGSIFRYNAMGWYRQAPGKERELVAAISASGGRTHDADSVKGRFTISRDNAKNTVYLQMNSLKPEDTAVYYCAAATYRGTSLYGYWGQGTQVTVSS	high polyreactivity
QVQLVESGGGLVQAGGSLRLSCAASGSIFRYNAMGWYRQAPGKERELVASISWSGGSTYYADSVKGRFTISRDNAKNTVYLQMNSLKPEDNAFYYCNVYGKYFRSRYDSWGQGTQVNVSS	high polyreactivity
QVQLVESGGGLVQAGGSLRLSCAASGSIFRYNAMGWYRQEPGKERELVASINGGGGTYYPDSVKGRFTISRDNAKNTVYLQMNSLKPEDTAVLYCNTVVNSFSYASRFNFYYWGQGSQVTVSS	high polyreactivity
QVQLVESGGGLVQAGGSLRLSCAASGSIFRYYAMGWYRQAPGKERELVAGITGSTGRTYYADSVKGRFTISRDKAKNTVYLELNSLKPVDTEVYYCSARSRYYEYDYWGQGTQVTVTS	low polyreactivity
QVQLVESGGGLVQAGGSLRLSCAASGSIFRYYAMGWYRQAPGKERELVAVITRGGSTYYADSVKGRFTISRDNAKNTVYLQMNSLKPEDTAVYYCAADYWPACMDRGYWGQATQVTVSS	low polyreactivity
QVQLVESGGGLVQAGGSLRLSCAASGSIFSAYAMGWYRQAPGKEREFVAGITSSGGRTYYADSVKGRFTISRDNAKNTVYLQMNSLKPEDTAVYYCAARFYKKDRRAYGYWGQGTQVTVSS	high polyreactivity
QVQLVESGGGLVQAGGSLRLSCAASGSIFSAYAMGWYRQAPRKEREFVAAITRRGGNTYYADSVKGRFTISRDNAKNTVYLQMNSLKPEDTAVYYCAAGFYYVYVWLGEYWGQGTQVTVSS	low polyreactivity
QVQLVESGGGLVQAGGSLRLSCAASGSIFSDNAMGWYRQAPGKERELVAGISSGGGTNYADSVKGRFTISRDNAKNTVYLQMNSLKPEDTGVYDCNADQRDGLELDYWGQGTQVTVSS	low polyreactivity
QVQLVESGGGLVQAGGSLRLSCAASGSIFSDYAMGWYRQAPGKEREFVAAIDSSGSTYYADSVKGRFTISRDNAKNTVYLQMNSLKPEDTAVYYCAADHLLYSVYIYYYWGQGTQVTVSS	low polyreactivity
QVQLVESGGGLVQAGGSLRLSCAASGSIFSDYAMGWYRQAPGKERELVAAISGTGGGTYYADSVKGRFTISRDNAKNTVYLQMNSLKPEDTAVYYCAADYVFAWWGDYYWGQGTQVTVSS	high polyreactivity
QVQLVESGGGLVQAGGSLRLSCAASGSIFSDYAMGWYRQAPGKERELVAGISSGGGTTYADSVKGRFTISRDNAKNTVYLQMNSLIPEDTAVYYCNKQDQPVGRSGYPYGYDYWGQGTQVTVSS	low polyreactivity
QVQLVESGGGLVQAGGSLRLSCAASGSIFSFNAKGWYRQAPGKERELVAAITTSGGSTYYADSVKGRFTISRDNAKNTVYLQMNSLKPEDTAVYYCAAVRPDNSLYEPMDYWGQGTQVTVSS	low polyreactivity
QVQLVESGGGLVQAGGSLRLSCAASGSIFSFNAMGWYRQAPGKERELVAAISYSGGSTYADSVKGRFTISRDNAKNTVYLHMNSLKPEDTAVYYCAADGLDYSSGGDGYWGQGTQVTVSS	low polyreactivity
QVQLVESGGGLVQAGGSLRLSCAASGSIFSFYAMGGYRQPPGKEREFVATITYGSGSTHYADSVKGRFTISRDNAKITVYLQLNSLKPEDTAVYYCAAETVRYEWGESPAALFDYWGQGTQVTVSS	low polyreactivity
QVQLVESGGGLVQAGGSLRLSCAASGSIFSFYAMGWYRQAPGKERELVATISSGDNTNYADSVKGRFTISRDNAKNTVYLQMNSLKPEDTAVYYCAADAWGVDREYDYWGQGTQVTVSS	low polyreactivity
QVQLVESGGGLVQAGGSLRLSCAASGSIFSFYAMGWYRQAPGKRELVAAISGNGGSTFYADSVKGRFTISRDNAKNTVYLQMNSLKPEDTAVYYCAAYSYRYKYYYWGQGTQVTVSS	high polyreactivity
QVQLVESGGGLVQAGGSLRLSCAASGSIFSFYMGWYRQAPGKERELVAAISSRGGSTYYADSVKGRFTISRDNAKNTVYLQMISLKPEDTAVYYCAAAGGGKVSYRDYDYWGQGTQVTVSS	high polyreactivity

Sequence	polyreactivity (PSR sort gate)
QVQLVESGGGLVQAGGSLRLSCAASGSIFSGKAMGWYRQAPGKERELVASINRSGGSTYSADSVKGRFTISRDNAKYTVYLQMNSLKPEDTAVYSCAARRVWLAGYDSWGQGTQVTVSS	low polyreactivity
QVQLVESGGGLVQAGGSLRLSCAASGSIFSGYAMGWYRQAPGKEREFVAAISSSGGRTYYADSVKGRFTISRDNAKNTVYLQMNSLKPEDTAVYYCNAVSSYGYDYWGQGTQVTVSS	high polyreactivity
QVQLVESGGGLVQAGGSLRLSCAASGSIFSGYAMGWYRQAPGKERELVAAITGGGSTNYADSVKGRFTISRDNAKNTVYLQMTSLKPEDTAVYYCAAAPVSLPDYGYWGQGTQVTVSS	low polyreactivity
QVQLVESGGGLVQAGGSLRLSCAASGSIFSGYTMGWYRQAPGKERELVAAITQRGTRTYYADSVKGRFTISRDNAKNTVYLQMNSLKPEDTAVYYCAADSVVVGSPGNDYWGQGTQVTVSS	high polyreactivity
QVQLVESGGGLVQAGGSLRLSCAASGSIFSHNAMGGYRQAPGKERELVASITGSGGSTYYAASVKGRFTISRDNAKNTVYLQMNSLKPEDTAVYYCAATYYPDVRGMDYWGQGTQVTVSS	low polyreactivity
QVQLVESGGGLVQAGGSLRLSCAASGSIFSHNAMGWYRQAPGKERELVAAISRSGGSTYYADSVKGRFTISRDNAKNTVYLQMKSLKPEDTAVYYCAVRAYKVSRYYYWGQGSQVTVSS	low polyreactivity
QVQLVESGGGLVQAGGSLRLSCAASGSIFSINAMGWYRQAPGKERELVAAISWSGGSTYYADSVKGRFTISRDNAKNTVYLQMNSLKPEDTAVYYCAASYWDTEPGYREYDYWGQGTQVTVSS	low polyreactivity
QVQLVESGGGLVQAGGSLRLSCAASGSIFSINAMVSYRQAPGKERELVAAISASGGSTYYADSVKGRFTISRDFAKITVYLHMNSLKPEDTAVFYCAAEGSPTGYDYWGQGTQVTVSS	low polyreactivity
QVQLVESGGGLVQAGGSLRLSCAASGSIFSINTMGWYRQAPGKERELVAAITRSGSGTYYADSVKGRFTISRDNAKNTVYLQMNSLKPEDTAVYYCNADDWVGRSLRYDYWGQGTQVTVSS	low polyreactivity
QVQLVESGGGLVQAGGSLRLSCAASGSIFSKNAMGWYRQAPGKERELVAAITWSGGRTYYADSVKGRFTISRDNAKNTVFLQMNSLKPEDTAVYYCAAVSRVRYYLQTYDSWGQGTQVTVSS	high polyreactivity
QVQLVESGGGLVQAGGSLRLSCAASGSIFSLNAMGWYRPAPGKERELVAVINRSGTRTYYADSVKGRFTISRDNAKNTVYLQMNSLKPEDTAVYYCNAQPSSGSDAQNEYWGQGTQVTVSS	high polyreactivity
QVQLVESGGGLVQAGGSLRLSCAASGSIFSLNAMGWYRQAPGKEREFVAASGGGSTYYADSVKGRFTISRDNAKNTVYLQMNSLKPEDCAVYYCAARVLTDELDYWGQGTQVTVSS	low polyreactivity
QVQLVESGGGLVQAGGSLRLSCAASGSIFSLYAMGWYRQAPGKERELVAAISSSGTSTYYADSVKGRFTISRDNAKNTVYLQMYSLKTEDTAVYYCNAYRRRATYNGDYWGQGTQVTVSS	high polyreactivity
QVQLVESGGGLVQAGGSLRLSCAASGSIFSLYDMGWYRQAPGKERELVASITWSGGSTDYADSVKGRFTISRDNAKNTVYLQMNSLKPEDTAVYYCAAYSYTSIFDYWGQGTQVTVSS	low polyreactivity
QVQLVESGGGLVQAGGSLRLSCAASGSIFSLYVMGWYRQAPGKERELGAAITSGGRTNYADSVKGRFTISRDNAKNTVYLLMNSLKPEDTAVYDCAARFPSRYGRYGYWGQGTQVTVSS	high polyreactivity
QVQLVESGGGLVQAGGSLRLSCAASGSIFSPNAMGWNRQAPGKERELVAAISRRGGRTYYADSVKGRFTISRDNAKNTVYFQMNSLKPEDTAVYYCNAVWYSDTYTNPQYDYWGQGTQVTVSS	high polyreactivity
QVQLVESGGGLVQAGGSLRLSCAASGSIFSPYAMGWYRQAPGKARELVAVITRSGGRTYYADSVKGRFTISRDNAKNTVYLQMNSLKPEDTAVYYCAATPKSWSSSTRDYWGQGTQVTVSS	high polyreactivity
QVQLVESGGGLVQAGGSLRLSCAASGSIFSPYAMGWYRQAPGKERELVAAISDRGGSTYYADSVKVRFTISRDNAKNTVYLQMNSLKPEDTAVYYCAARVGYAFRYYYWGQGTQVTVSS	high polyreactivity
QVQLVESGGGLVQAGGSLRLSCAASGSIFSQNAMGWYRQAPGKERELVAAITSSGGNTYADSVKGRFTISRDNAKNTVYLQMNRLKPEDTAVYYCAAGHLVILNRSEYYYWGQGSQVTVSS	low polyreactivity
QVQLVESGGGLVQAGGSLRLSCAASGSIFSQYAMGWSRQAPGKERELVAAISSSGDSTNYADSVKGRFTISRDNAKNTVYLQMNSLKPEDTAVYYCAADFDWFIWGYDYWGQGTQVTVSS	low polyreactivity
QVQLVESGGGLVQAGGSLRLSCAASGSIFSQYAMGWYRQAPGTERDFVAAINWSGGRTRYADSVKGRFTISRDNAKNTVYLQMNSLKPEDTAVYYCAKVYSLYSYSGRYDYWGQGTQVTVSS	high polyreactivity
